Data as given in patent US20060269536.

Legend:
[1] = test system: substrate pentapeptide RR↓SID
[2] = test system: substrate pentapeptide MTR↓SN
[3] = test system: substrate pentapeptide ER↓VSP
[4] = test system: substrate pentapeptide RGR↓SE
[5] = test system: substrate pentapeptide KLR↓TT
[6] = test system: substrate pentapeptide LR↓SRA

human glandular kallikrein hK2
substrate phage display: peptide selected as cleaved by hK2 (scissile bond ↓) [1]: RR↓SID
substrate phage display: peptide selected as cleaved by hK2 (scissile bond ↓) [2]: MTR↓SN
substrate phage display: peptide selected as cleaved by hK2 (scissile bond ↓) [3]: ER↓VSP
substrate phage display: peptide selected as cleaved by hK2 (scissile bond ↓) [4]: RGR↓SE
substrate phage display: peptide selected as cleaved by hK2 (scissile bond ↓) [5]: KLR↓TT
substrate phage display: peptide selected as cleaved by hK2 (scissile bond ↓) [6]: LR↓SRA
